Measurements from paper PMC8145704, “Conformational Plasticity of Hepatitis B Core Protein Spikes Promotes Peptide Binding Independent of the Secretion Phenotype” (Microorganisms, 2021).

Target: T1, WT-HBc capsids (hepatitis B core protein, genotype D; strain ayw; GenBank: V01460.1) (Hepatitis B virus (genotype D; strain ayw)), P03146
T1 chain: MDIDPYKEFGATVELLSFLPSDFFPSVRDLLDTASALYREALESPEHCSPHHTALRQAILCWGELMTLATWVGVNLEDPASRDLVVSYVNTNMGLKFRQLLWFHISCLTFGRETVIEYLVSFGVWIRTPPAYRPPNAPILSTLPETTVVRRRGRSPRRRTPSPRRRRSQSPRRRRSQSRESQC
Assay: negative-staining electron microscopy
Settings: remark: other sources report otherwise

B1: WT-HBc capsids (hepatitis B core protein, genotype D; strain ayw; GenBank: V01460.1), P03146 1-183 (natural protein)
chain: MDIDPYKEFGATVELLSFLPSDFFPSVRDLLDTASALYREALESPEHCSPHHTALRQAILCWGELMTLATWVGVNLEDPASRDLVVSYVNTNMGLKFRQLLWFHISCLTFGRETVIEYLVSFGVWIRTPPAYRPPNAPILSTLPETTVVRRRGRSPRRRTPSPRRRRSQSPRRRRSQSRESQC
- stoichiometry N (subunits per capsid): 240
